According to paper PMC6960015:

Molecular target: GST-ArhGAP12 ΔNΔP R582A (mouse (NIH 3T3 cDNA library)) (UniProt S4R248)
Assay: BLI

## Rabbit skeletal muscle LatB-actin (from UniProt P68135 1-377) (natural protein)
  fold reduction of binding affinity against wild type: 1300 fold
